# How the values were obtained:
# [1] = molecular target: CA IX expressed by cells (C-33a_CA IX transfectants; hypoxic BT-20, JIMT-1, 8-MG-BA and 42-MG-BA cells) (human) (UniProt Q16790); test: flow cytometry, M75 1 ug/ml and Alexa 488 secondary antibody, hypoxic BT-20 cells
# [2] = molecular target: CA IX expressed by cells (C-33a_CA IX transfectants; hypoxic BT-20, JIMT-1, 8-MG-BA and 42-MG-BA cells) (human) (UniProt Q16790); test: flow cytometry, M75 1 ug/ml and Alexa 488 secondary antibody, hypoxic JIMT-1 cells
substance,measurement,setting,value
mouse monoclonal antibody M75,median signal level of CA IX-staining,[1],108
same,median signal level of CA IX-staining,[2],86.8

# — US20240150490A1
